# From the domain aggregation screens of Martell et al. (2025)
# Experiment: soluble fraction after stress (log2 fold change); higher = more stays soluble; pooled small domains, quantitative proteomics
# Details: stress: pH 4
# Procedure, shortened: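 How much of each domain stays soluble after acid stress, expressed as a fold change, is used to gauge aggregation propensity. Pooled custom libraries of small domains underwent pH 4 stress before high-throughput quantitative proteomics. A higher log2 value means more of the domain stayed soluble.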
sequence,measurement,value
HMELTKAELEVMQILWKLKKAFVGDILDRMVEPKPAYNTVSTVVRLLEKKGVVGHESFGKSHRYYPL,soluble fraction (log2),-0.0549
HMFPQVEVQLIYSYKSDRILNKMLKEFNVVILNQVFKDDILTSFHMNYSLVNQLITKIKSYPDISYKIIN,soluble fraction (log2),-0.89
HMSGEMGIIVAKRLPIRSEPDELATRAFVLKAGTRVKIVKHLNGWLEIVHDGKAGYVQDLEVYVRVIG,soluble fraction (log2),-0.445
HMQLDLSDPSKNKLDSIVSLPIKSLKAVEANGEILFMSENGRFVLRGQLYDIWYKDTLDTSAQIQDAATRI,soluble fraction (log2),0.179
HMSGIQNNFITRLKKVLAPTIGIAEEISDLLNISIDSAYRRIRGETDFTFEEIYIITRKHKISIDEIYG,soluble fraction (log2),-2.14
HMVVTMEKIVVNDGGIRIDTYLADKLNISRSKVAKMLENNILVNNVKVKPSYKVTNNDIIEVEEYV,soluble fraction (log2),0.402
HMSTSERLKQVMEVKGFNLKTFSEQADIPYRTLQNYILTNREPSAESLAKLHSQLGINLNWLMSGKGEMF,soluble fraction (log2),0.109
HMGRRERKKLQSRRAIIEAAVTEFKEKGFREASVADIMTRADLGLGTFYNYFQSKEDILMSLLS,soluble fraction (log2),-0.0713
HMNKSGVVLIRVTVDASGRVTSAAYEPKGSTTSDVELVAEARKAALRTRFTESRTVIEGGVITYIFKL,soluble fraction (log2),-0.0968
HMINRMGRLVEALSHMIANTKPGARLPSEPELARQLGVSRATLREAMRTFEAQGMIHRRQGAGTFVVH,soluble fraction (log2),0.00515
HMNNFTPEHLEKDIEGSLFFRRLKETAREEPGSLTVAQKDFIQMWHDQADGVYTLRQVFVQTAFDHVRSL,soluble fraction (log2),0.22
HMVSGLEILKIQVQDHPSDWRWALLLARTHYENGNREAAVRTLRPLQRLHPDRLEVMTLWALLA,soluble fraction (log2),-0.222
HMEISNWLEEIGLSRYTETLSEFPLEDLVEFTDDDFKELGVLTPHRKKLLAAIATLNNDASSN,soluble fraction (log2),-1.12
HMHPFELNTVTEGQLKRLPFLSDLQIRELLEYRSRYGKMLTLYELKNVEAFDLETISLLVPFIYISEI,soluble fraction (log2),-1.44
HMSTNYVQVLRAALNGVSGRKLAQQYRVSRDTVAILLRQAKIQGWQRAEDLENITEEDLVALLSG,soluble fraction (log2),-0.987
HMRRKNQVQSSYQKRENGTYTVRFFLSDDMGSIMDLQLMATREDMARALRERFLKDPEKIYGQIMQMLLR,soluble fraction (log2),0.241
HMLSVTLTVLPQQAGERLDAFAAAESTLSRSAAAKLIEDGQITVNGARAAKNYRLRAGDVIEIDEPEPI,soluble fraction (log2),0.194
HMRMLSEGAQRMLRGLAVLEEASADRLLELHQGDYPGFVRSLFALESAGLFQRNGSGTWIRR,soluble fraction (log2),-0.996
HMTINQIDPASGRKVGYWIITGEMKPKEGFSPDNKIEEGIYVNSRKSGKWIKYWPNGNVRSEIIYKNGR,soluble fraction (log2),-0.0109
HMVGQIISNARKQEKMTQSELAEKVGTNKTYISRIEKGVIEPGVGLFFRIIDALGLKIEIVKP,soluble fraction (log2),-0.362
HMTFGEMLQYTNRLKEILESNAPQSIKDRRLANLMTDLEQAYGIPILRDQEFEKENPFLMQLYRTIS,soluble fraction (log2),-1.36
HMNTPTLLLYGGKDHSVPEAGIRHLRAHLSANDRGEYRFYPNAPHLLLQSRQWQQVSQDISQWLAMT,soluble fraction (log2),0.0454
HMSQQEAQLNSLVKIYESMKPKDAARIFDTLDMDVLLDVVMRMKEARSAAVLAEMTPDRAKEVTLQLAD,soluble fraction (log2),-1.8
HMGRELSDLELSLLRILDDKIPLLIDEAADRLQLPVAQVLSAVTIMEIDGLIRREGMRKYLRTVEVEETK,soluble fraction (log2),-1.3
HMDRKFFFNEQYEDYINSDLKVKFMNDSGSKKSFQGELTKVTPSDLFLESEKESVKVPFSSIIQANLI,soluble fraction (log2),-0.591
HMGTGADKNSWTIGDKVKHRKWGTGTVVKVTGAGEDAELDIAFKSEGIKRLLAAFAPIEKVK,soluble fraction (log2),-0.0706
HMSLPTSDWKRALSLFDEALSLPPDARDAWLAHTIAREPAVSPLLQKLLGAHRRVETNDILATLPR,soluble fraction (log2),-0.274
HMRVDLVQRLARHGLSPRQSAVAGGVLRGLDNGEISRQLYIAEQTVKDHLHEIYHRLGVHTRTELLIKVLG,soluble fraction (log2),-0.359
HMIKIDESTLSEDELKIFEILKIEDKNIENIAIESKILPGKLLATLMNMEMKKIVVQYPGKVFGLNRKLK,soluble fraction (log2),0.0566
HMAPEPFILSVDADGKYYIDDLEKTKQEILIYATALYQEKPTTDFLVRGDKSAAYNDVLQAMVVLKE,soluble fraction (log2),0.171
HMPGLQSVTPAELKIGMYVILPLAWDEHPFLKNHFLIQSEAQINKIRELGTKGIQIDLSKSHP,soluble fraction (log2),0.0126
HMVYLPSSIKNIPTKYGEMMVANFKMDELQANSKNGWVSMVISERREPSEKGATHYAYVNTY,soluble fraction (log2),0.106
HMIVIMKAKAEEEDVNRVIDTIQSLGLRTQLNLGAERMVVAVIGDISKIGEDNFFRIRAMKGVENTVFVSK,soluble fraction (log2),-0.811
HMTSLSYINDLVTGATAQGLYRIVVPNQFMDDNMANVLRRTYGYQVQSRTSLMGTFDDYIISWAPPM,soluble fraction (log2),-1.59
HMQTSETVYTTDKVNVRAGADTSSDKLGSVEKGTSLTRTGTDGDWSIIDYNGTTGYIKSEYLSATAPE,soluble fraction (log2),0.316
HMDSINIDEETAKLGPNAPQIIDGIKKWGQGLVAKGVWSDEDFDEFKVFAATSSGINALNKIRKYY,soluble fraction (log2),-0.138
HMIPLPEDVASMRERLALTPEKADELFGLEDGSFARYEHGEEKVPFVVFQLLWLLGKYPHLIGELR,soluble fraction (log2),-0.801
HMNEAVVVPDVKGLTLDEADEFFKNSKLRYNVVDSVFSKDVAPGAIVELVPVAGSKVKENRIVFVTINAQ,soluble fraction (log2),-0.517
HMVDPWLEQVHRASAAYATAHGSARIPTTHPDLGWKVVRVRQRHRKGLLSDEWVAKFEALPGWTWEPK,soluble fraction (log2),-0.471
HMEDEAVMQLPLSELKGLSPELLAILNGAGYEKLKDVLDLEREDIERIPGMTPERNEQLVAFLAELTE,soluble fraction (log2),-1.98
HMSTTALLEKMVRYIRTLPVISQVVLSLHYYRGMELREIASELDITESRASQLHTTAVLGIRDLLSSY,soluble fraction (log2),-2.02
HMVEPDELTEREREVLQFVARGLSNKEIGAALALSPHTIKAHLRSILDKLHLRSRAEAAAWAVRSGLS,soluble fraction (log2),-0.162
HMNDPNAPITENQLKAIHVLLDKLKVDDNLKHAYIADVLQLDNEPETLKTLTKAQGSMAIERMQLLKDN,soluble fraction (log2),-0.42
HMLQQKESAALGERLLNQALATLKVEPDAISWDRWEALAKEYGAKSQLDILADIGLGKRLSFVVAQALTKV,soluble fraction (log2),-0.698
HMKTGHLPVTVIIDGRIISDNLYKTGLSNNWLADQLRKNSIKSSEDVFFAYLNPERKFIYQLRSNS,soluble fraction (log2),-0.098
HMIDIGSKIKKLRSKKSIEIGKKYTGAMLANELGISRSYLGDIESGRTVPNEIILGKIADIFDVDIYELIG,soluble fraction (log2),-0.405
HMNQKKFIQADYEDRLFDHLAFEVKDMEKIISMMRREKFTITDEPFRLSPTGSLIAFVEDPDRTLIELIER,soluble fraction (log2),-0.522
HMKNEQIFIVRPDAEGTRLDQWLAAQMASSEEAPSRMQIQRWIKAGLVEGQGTLNPARRIEAGESYTVKPG,soluble fraction (log2),0.203
HMGTDIGADKAAQTALADAGLSSSQVTGLRTKQDWDDGQLRYEVEFRAGGVEYDYELAADGTILKADRDT,soluble fraction (log2),0.254
HMGRRRAAPQEPLRQFPASPVTGQPIKLLLGQYGPYVTDGTTNASLPKGSSPDELTFEQATQLLAERALRG,soluble fraction (log2),0.0322
HMKQVSDTGAIDAAIREVMDANPDKVAEYRSGKDKLFGFFVGQIMRAMAGKAAPVVVNDRLKALLD,soluble fraction (log2),0.32
HMESPSGGHRIALAFDQGTARAVDATYARLTGAGYEGRTKPWDAPWGQRYATVFDPDGNSVDLFAALE,soluble fraction (log2),-0.544
HMIRQETYLLVRKAVGALPVQMRKIIELAMQGKKNAEIAAQLSISEGTVHTLKKTAYKKLRDRLQE,soluble fraction (log2),-0.32
HMTANTLDLTYSQFLENVKNGSVNDVTIRGNNVSGNFSDGRKFKTYAVNDPTLVEKLTKMGVNISAAPL,soluble fraction (log2),0.14
HMPKLTKEEIQFIDNYLKNSGVEYIDTRAEVVDHVASEIESRLSANNTTNFYEEFKVYMVQHKETLLK,soluble fraction (log2),-0.96
HMGDLVKGKVVGYDPDNVIVDIGAKTNALVPNREAVVEAGDDIKETLKKGNEYEFLIIRDEDEEGEFL,soluble fraction (log2),0.0813
HMDTDVFLMDLRGESRDYAEEVLINNNLEVKVIILPFSKRHYPGKVVEMRPSPFTKVKKGRIITLSVAGN,soluble fraction (log2),-1.11
HMRDYKTHLQEVLQSKGEVNIWYKLIDEKGPDHNKKFVMQVGIDSKILGFGEGKSKKEAEQVAARKALDNI,soluble fraction (log2),-0.317
HMSAITLDQARAIALDHAGISEGDATFVKEQTGTSSYEIEFYSGSNEYDYEIDKATGAILNVDR,soluble fraction (log2),0.22
HMLALKSGQVVVGTIIRRLDNTTAMLRIGNQLFETSFAKGLPKSNHILLRYDAMQGNRFIFTMVE,soluble fraction (log2),-0.063
HMEQLIIQEELSGKRLDQLVSLLFPSLTRAHAQKLIKEGAVLVNEKPRKPAYAVMTGELLTVELPEPE,soluble fraction (log2),-0.755
HMFNGDPTTRESILASARAEIDQYGIIGLRLSAVAEKAQVSVPLIYKYFEDRDGLLAVVLGDW,soluble fraction (log2),-1.36
HMNLGVIYSLKAEVRSEPNTFSTRLFEVHEGLKVSINQLENDWVEIELLDGKTGWISNDQIRLI,soluble fraction (log2),-0.772
HMGYTTSFVVQLKNAVSISFDEIDQNLRKLPGVEDVVIVEEAAMAYLKVDRQHFREEQLAHFEFVRQ,soluble fraction (log2),-1.6
HMGMYFTEMRKNEGLIALNGVAESNKRVSDLMDNLKDSSSFDAADIKAVKSGSGDASSLMDFELLVT,soluble fraction (log2),-0.452
HMRLADHVVEKLLALVQERGLQPGQKLPAERQLAEVLGVSRTSVREAIQKLVSQGVLSARRGDGTYVQS,soluble fraction (log2),0.0683
HMSVISVETAKSKALAHAGLTASKVTFIENKLEWDDGRQVYDIEFYTSDYKEYDYTIDAVSGQVLEFDY,soluble fraction (log2),0.114
HMAEGPYSGKKVEKYPGGMEKRETMYSEGKLTRVTEFHQSGQKKMEVKVDANGQWKRLYWDNNGNPT,soluble fraction (log2),-0.086
HMTELKKTAVDTWVKDLGTEQALAKLDTLAVVKLRRLAREYKAFGIAGRAISKADKGMLLAEFRAYYEN,soluble fraction (log2),0.171
HMELTVPDFTNMSLEDAINLAEKRDVRLEVTDSVFVKRLGRGFIYSQNPVAGSKVKKGRRILITINAIN,soluble fraction (log2),0.113
HMFIGFLHQLKEAGVPVSIREYLDFLSGLDKGITNLNTNSFYHFARASLVKDERHYDRFDRTFSEFFEGAL,soluble fraction (log2),-1.71
HMVIVMRKDADAASIEKVVSEVKSRGFMPHVSEGESRTLIGAIGPAPTEELREHFAGLAGVETVVRITK,soluble fraction (log2),-0.0319
HMTPPAQQPHEGLPTDETATDAKTLVQKSRWWLEEEQRQREAGNTAYAERIRLALIQLLYRAERA,soluble fraction (log2),0.0525
HMRMSQLSRLISILTLLKSKRLLTATELAEKYDVSIRTVYRDIRKLEEAGIPVYTIEGRGYSLMDNYT,soluble fraction (log2),-0.299
HMFDLATVKRVAEEAGMKFTIHPVELRAAHPNTAVLTLKSKAGRILVLKAASVGGGRIRVTEIDGVPAD,soluble fraction (log2),0.219
